Laboratory results taken from publication PMC6159515.

Molecular target: CglEndoMS-ΔCter, His-tagged (lacks the five carboxy-terminal residues of CglEndoMS) (Corynebacterium glutamicum ATCC 13032)
Assay: SEC

Question: For “CglEndoMS-ΔCter, His-tagged (lacks the five carboxy-terminal residues of CglEndoMS) (domain or fragment)”, which stoichiometry N is on record?
Answer: 2
